{"source": "paper PMC2837123", "target": "full-length wild type prototype foamy virus (PFV) integrase (prototype foamy virus (PFV))", "assay": "crystal structure", "data": [{"substance": "full-length wild type prototype foamy virus (PFV) integrase (enzyme)", "values": [{"measurement": "stoichiometry N", "value": 4}]}]}
